Residue numbers refer to the chain shown, from its start. Where two headings read alike, the source gives them in different places. Blank lines part the entries; values can stand above or below the binder they belong to.
Tests used:
[1] = target: T1, human IGSF11 (VSIG3) expressed on cells (human, UniProt Q5DX21 23-431); test: IgG1 FACS DMS 273
T1 sequence: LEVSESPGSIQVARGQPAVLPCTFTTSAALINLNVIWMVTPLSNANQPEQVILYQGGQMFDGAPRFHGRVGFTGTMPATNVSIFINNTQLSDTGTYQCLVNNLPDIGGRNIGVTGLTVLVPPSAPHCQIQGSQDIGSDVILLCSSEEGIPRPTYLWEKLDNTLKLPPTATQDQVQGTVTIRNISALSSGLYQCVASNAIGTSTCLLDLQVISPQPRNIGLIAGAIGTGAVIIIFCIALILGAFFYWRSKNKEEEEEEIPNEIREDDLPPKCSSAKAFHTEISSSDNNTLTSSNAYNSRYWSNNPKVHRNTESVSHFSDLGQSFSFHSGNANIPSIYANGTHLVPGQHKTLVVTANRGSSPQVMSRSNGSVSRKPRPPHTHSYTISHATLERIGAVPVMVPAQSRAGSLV

[2] = target: T2, human IGSF11 (VSIG3) ECD, His-tagged (human, UniProt Q5DX21 23-241); test: blocking ELISA: VSIR-Fc immobilised, IgG dilution series pre-incubated with 200 nM IGSF11 ECD-His, bound IGSF11 detected with anti-His-HRP
T2 construct: in part bought (SinoBiological 13094-H08H); also called HIS-IGSF11; IGSF11-HIS; not shown: His tag
T2 sequence: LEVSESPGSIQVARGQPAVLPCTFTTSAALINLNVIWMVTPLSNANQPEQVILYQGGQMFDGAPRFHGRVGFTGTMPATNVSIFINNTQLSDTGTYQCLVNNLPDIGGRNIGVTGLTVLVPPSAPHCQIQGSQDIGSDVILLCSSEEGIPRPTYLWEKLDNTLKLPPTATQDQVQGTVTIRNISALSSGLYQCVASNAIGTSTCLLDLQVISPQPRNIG

[3] = target: T1, human IGSF11 (VSIG3) expressed on cells; test: FACS, M579-A2-luc cells with scrambled control siRNA (SC)
[4] = target: T3, extracellular domain (ECD) of human IGSF11 (VSIG3), recombinant (human, UniProt Q5DX21 23-241); test: SPR
T3 construct: biotinylated where captured on streptavidin; tags of the reagent not always stated; also called IGSF11 (ECD domain); ECD-IGSF11
T3 sequence: T2 sequence

[5] = target: T1, human IGSF11 (VSIG3) expressed on cells; test: FACS, DMS 273 cells with scrambled control siRNA (SC)
[6] = target: T1, human IGSF11 (VSIG3) expressed on cells; test: IgG1 FACS HEK-OE
[7] = target: T2, human IGSF11 (VSIG3) ECD, His-tagged; test: ELISA: IGSF11-HIS coated, IgG1 dilution series, anti-human antibody-HRP, TMB
[8] = target: T1, human IGSF11 (VSIG3) expressed on cells; test: FACS, M579-A2-luc cells with IGSF11 siRNA (KD, knock-down control)
[9] = target: T1, human IGSF11 (VSIG3) expressed on cells; test: FACS, DMS 273 cells with IGSF11 siRNA (KD, knock-down control)
[10] = target: T2, human IGSF11 (VSIG3) ECD, His-tagged; test: blocking ELISA: VSIR-Fc immobilised, IgG dilution series pre-incubated with 200 nM IGSF11 ECD-His, bound IGSF11 detected with anti-His-HRP; remark: listed apart in the source
[11] = target: T4, murine IGSF11 expressed on cells (mouse, UniProt P0C673 23-428); test: IgG FACS MC38-wt
T4 construct: MC38-IGSF11, CT26-IGSF11, MC38-wt (naturally expresses murine IGSF11)
T4 sequence: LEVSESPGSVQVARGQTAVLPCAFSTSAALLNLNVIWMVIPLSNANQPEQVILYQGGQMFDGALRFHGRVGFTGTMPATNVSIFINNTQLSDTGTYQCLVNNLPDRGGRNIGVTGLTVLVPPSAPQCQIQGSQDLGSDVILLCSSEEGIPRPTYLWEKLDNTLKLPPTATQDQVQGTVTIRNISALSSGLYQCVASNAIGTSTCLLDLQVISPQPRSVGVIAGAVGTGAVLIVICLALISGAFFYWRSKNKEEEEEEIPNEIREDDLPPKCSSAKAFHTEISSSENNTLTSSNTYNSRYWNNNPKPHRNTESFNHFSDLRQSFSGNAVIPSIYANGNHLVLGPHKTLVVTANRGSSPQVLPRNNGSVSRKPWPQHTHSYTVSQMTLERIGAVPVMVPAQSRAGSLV
Text: (§1) Unbound antibodies were removed by washing the cells three time with FACS buffer. Bound antibodies were detected with a mouse anti-human IgG antibody conjugated with AlexaFluor647.

[12] = target: T1, human IGSF11 (VSIG3) expressed on cells; test: IgG FACS Colo741
Text: as §1

[13] = target: T3, extracellular domain (ECD) of human …; test: SPR; remark: listed apart in the source
[14] = target: T2, human IGSF11 (VSIG3) ECD, His-tagged; test: IgG1 ELISA EC50 <0.02 nM
[15] = target: T5, full-length ECD of human IGSF11 fused to murine Fc (human, UniProt Q5DX21 23-241); test: IgG ELISA
T5 construct: also called Fc-fusion IGSF11 ECD; not shown: murine Fc
T5 sequence: T2 sequence

[16] = target: T6, IgV domain of human IGSF11 fused to murine IgG2a Fc (human, UniProt Q5DX21 23-143); test: IgG ELISA
T6 construct: not shown: murine IgG2a Fc-region
T6 sequence: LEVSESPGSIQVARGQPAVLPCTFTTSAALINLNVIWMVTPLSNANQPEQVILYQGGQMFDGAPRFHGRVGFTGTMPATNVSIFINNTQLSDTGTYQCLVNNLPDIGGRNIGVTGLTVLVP

B1: B-002 (chain-swapped IgG1) (antibody, V domains shown)
VH: EVQLVESGGGLIQPGGSLRLSCAASGFTVSSNYMSWVRQAPGKGLEWVSVIYSGGSTYYADSVKGRFTISRDNSKNTLYLQMNSLRAEDTAVYYCARGNPYYYGDLQVNFDYWGQGTLVTVSS
VL: QAVVTQEPSLTVSPGGTVTLTCASSTGAVTSGYYPNWFQQKPGQAPRALIYSTSNKHSWTPARFSGSLLGGKAALTLSGVQPEDEAEYYCLLYYGGAWVFGGGTKLTVL
notes: human IgG1 format; also called B2
EC50 [1]: > 50 nM | IC50 (read off the curve) [2]: 4 to 5 nM | % binding (FACS heat-map) [3]: 70.7% | Kd [4]: 100 to 250 nM | % binding (FACS heat-map) [5]: 80.1% | EC50 [6]: 10 to 50 nM | EC50 (read off the curve) [7]: ~0.01 nM | % binding (FACS heat-map) [8]: 2.77% | % binding (FACS heat-map) [9]: 8.68%

B2: B-001 (chain-swapped IgG1) (antibody, V domains shown)
VH: B1 VH with V5L, A24V
VL: B1 VL with G32A, E87D
notes: human IgG1 format; also called B1
IC50 (read off the curve) [10]: ~2 nM | Kd [4]: 250 to 500 nM | EC50 [6]: 10 to 50 nM

B5: A-004 (IgG1 format) (antibody, V domains shown)
VH: EVQLVESGGGLVKPGGSLRLSCAASGFTFSSYSMNWVRQAPGKGLEWVSSISSSSSYIYYADSVKGRFTISRDNAKNSLYLQMNSLRAEDTAVYYCARGQLLWFGESALIDAFDIWGQGTMVTVSS
VL: EIVLTQSPSSLSASVGDRVTITCRASQSISSYLNWYQLKPGKAPKLLIYAASILQSGVPSRFSGSGSGTDFTLTISSLQPEDFAAYYCQQSYSTPRTFGQGTKLEIK
notes: human IgG1 format
Kd [13]: 100 to 250 nM | EC50 [14]: < 0.02 nM | EC50 [15]: 1 to 20 nM | EC50 [16]: 1 to 20 nM

Next, values leading:

EC50 [11]: < 0.1 nM | EC50 [12]: < 0.5 nM
B3: D-116 (IgG format) (antibody, V domains shown)
VH: EVQLLESGGGLVQPGGSLRLSCAASGFTFKHSAISWVRQAPGKGLEWVSAISYGGGSQYYADSVKGRFTISRDNSKNTLYLQMNSLRAEDTAVYYCARDSRDAYGVAFDLWGQGTMVTVSS
VL: ASVLTQPPSVSAAPGQKVTISCSGSSSNIGNNYVSWYQQLPGTAPKLLIYDNNKRPSGIPDRFSGSKSGTSATLGITGLQAEDEADYYCQSYGHRSFVFGGGTKLTVL

EC50 [11]: < 0.5 nM | EC50 [12]: < 0.5 nM
B4: D-223 (IgG format) (antibody, V domains shown)
VH: EVQLVESGGGLVKPGGSLRLSCAASGFTFSHAWISWVRQAPGKGLEWVGQIKGGPGSGGTSYAEPVKGRFTISRDDSKNTLYLQMNSLKTEDTAVYYCARLGIYSGFDYWGQGTLVTVSS
VL: SYELTQPPSVSVSPGQTASITCSGDKLGDKYASWYQQKPGQSPVLVIYQDSKRPSGIPERFSGSNSGNTATLTISGTQAEDEADYYCHSYLHLPPTVVFGGGTKLTVL
